Reference: patent publication US7186408 (CAMBRIDGE UNIVERSITY TECHNICAL SERVICES, dated 2007)

What was measured:
[1] = target: vCD30-Fc (EV Hampstead vCD30 fused to the Fc fragment of human IgG1, baculovirus AcCD30-Fc, purified from Hi5 … (ectromelia virus, strain Hampstead; …)
Human CD30 on K562 cells = target: T1, Human CD30 on K562 cells (human, UniProt P28908 19-595); test: flow cytometry on K562 cells
T1 construct: also called cell surface CD30; cellular receptors
T1 sequence: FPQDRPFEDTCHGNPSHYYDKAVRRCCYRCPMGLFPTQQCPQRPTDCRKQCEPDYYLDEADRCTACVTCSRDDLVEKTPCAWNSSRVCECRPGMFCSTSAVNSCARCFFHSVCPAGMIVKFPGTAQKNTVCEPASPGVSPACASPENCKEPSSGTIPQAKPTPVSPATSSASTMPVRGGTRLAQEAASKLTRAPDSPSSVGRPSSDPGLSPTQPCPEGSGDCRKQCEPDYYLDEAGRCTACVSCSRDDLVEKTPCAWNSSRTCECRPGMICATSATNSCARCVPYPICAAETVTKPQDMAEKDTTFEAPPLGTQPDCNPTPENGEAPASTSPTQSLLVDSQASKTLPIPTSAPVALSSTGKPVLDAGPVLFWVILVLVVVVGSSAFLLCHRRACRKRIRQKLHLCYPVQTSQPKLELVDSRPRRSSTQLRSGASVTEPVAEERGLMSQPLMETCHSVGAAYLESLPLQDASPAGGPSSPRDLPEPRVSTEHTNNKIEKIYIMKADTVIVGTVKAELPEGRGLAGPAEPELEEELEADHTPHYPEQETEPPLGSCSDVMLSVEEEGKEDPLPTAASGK

[2] = target: T2, Recombinant mouse CD30-Fc (R&D Systems) (mouse, UniProt Q60846 19-281); test: Scatchard analysis (LIGAND), 2 ng mouse CD30 on protein A FlashPlate with increasing mouse 125I-CD30L
T2 construct: also called moCD30-Fc; not shown: Fc portion of the bought fusion protein
T2 sequence: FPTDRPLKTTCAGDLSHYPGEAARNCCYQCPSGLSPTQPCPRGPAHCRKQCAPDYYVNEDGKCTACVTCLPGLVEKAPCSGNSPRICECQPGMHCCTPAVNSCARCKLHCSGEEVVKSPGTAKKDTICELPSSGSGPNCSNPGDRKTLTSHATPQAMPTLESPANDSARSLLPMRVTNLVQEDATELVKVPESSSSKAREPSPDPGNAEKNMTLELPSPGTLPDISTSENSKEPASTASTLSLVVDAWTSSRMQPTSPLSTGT

B1: Recombinant mouse CD30L (soluble, 6x histidine-tagged, R&D Systems) (ligand, UniProt P32972 68-239, looked up)
chain: QKKDSTPNTTEKAPLKGGNCSEDLFCTLKSTPSKKSWAYLQVSKHLNNTKLSWNEDGTIHGLIYQDGNLIVQFPGLYFIVCQLQFLVQCSNHSVDLTLQLLINSKIKKQTLVTVCESGVQSKNIYQNLSQFLLHYLQVNSTISVRVDNFQYVDTNTFPLDNVLSVFLYSSSD
notes: also called 125I-CD30L; mouse 125I-CD30L
In the case of B1, the Kd [1] is reported as 1 nM, the binding result (Human CD30 on K562 cells) is reported as “binds” and the Kd [2] is reported as 1 nM.
